In one series the test system is gp41. Particulars: various concentrations of oligomannose-8. As for the experimental part:
(§1) Scytovirnin specifically binds to a α-1-2, α1-2, α1-6-linked tetramannoside, a substructure of oligomannose-8 and -9 found on HIV envelope glycoproteins gp120 and gp41 (Adams et al., Chem. Biol., 11(6): 875-881 (2004)). […] Briefly, a 96-well plate was prepared as described in Example 1 with glycosylated gp120 or gp41 and 100 ng/well of scytovirin or a scytovirin-derived peptide. […] Each well also contained (a) various concentrations of oligomannose-8, (b) 100 μM of glucose, mannose, galactose, xylose, or N-acytylglucosamine, or (c) 100 μg/well α-acid glycoprotein (to act as a carrier for sialic acid). The plate was then washed and visualized using anti-scytovirin polyclonal antibodies as described in Example 1.

The next series relates to HIV gp120. As to conditions: 100 μM sugar or 100 μg/well α-acid glycoprotein; 100 ng/well peptide. As for the experimental part:
as §1

A further series has as its system CEM-SS cells. The text has this:
(§2) The protocol followed was the same as described in Gulakowski et al., J. Virol. Methods, 33: 87-100 (1991).

The next series has as its system HIV-1RF. Nature of the series: XTT-tetrazolium based anti-HIV assay, acute HIV-1 infection in CEM-SS cells. The format is cell-based. As to conditions: T-tropic laboratory strain HIV-1RF in CEM-SS cells; read-out: EC50 against HIV-1RF.
From the text: as §2
The deletion mutants were subjected to the XTT-tetrazolium based assay as described in Example 2.
For orientation: Tetrazolium dyes change colour on reduction, which living cells bring about.

Another series concerns the target HIV-1 gp41 ectodomain (Human immunodeficiency virus type 1 group M subtype B, UniProt P03375). Particulars: 100 ng/well gp41, absorbance at 450 nm. As for the experimental part:
(§3) Briefly, the 100 ng/well of either gp120 and gp41 proteins was bound to a 96-well plate, which was then rinsed with PBS containing 0.05% Tween 20 (TPBS) and blocked with BSA. Between each subsequent step, the plate was again rinsed with TPBS (x3). […] Upon addition of the horseradish peroxidase substrate buffer and color formation, the reaction was stopped by the addition of 2M H2SO4 (after 5 minutes for the gp120 plate and 15 minutes for the gp41 plate) and absorbance was measured at 450 nm for each well.

A further series has as its target HIV-1 gp120 (Human immunodeficiency virus type 1 group M subtype B, UniProt P03375). Particulars: 100 ng/well gp120, absorbance at 450 nm. As for the experimental part: as §3

A value given as a limit tells only on which side of the number the result lay.

As to “SD1: polypeptide of SEQ ID NO: 1, derived from amino acids 1-48 of scytovirin (scytovirin domain 1) (GSGPTYSWNEANNPGGPNRCSNNKQCDGARTCSSSGFCQGTSRKPDPG)”, in the series on gp41, the “inhibition of binding to gp41 by oligomannose-8” value is “able to inhibit the binding of SD1 to gp41 in a concentration-dependent manner”. The “inhibition of binding to gp120 by glucose, mannose, galactose, xylose, N-acytylglucosamine, α-acid glycoprotein with sialic acid” value in the series on HIV gp120 is “not able to inhibit binding”. Moreover, the “toxicity to the CEM-SS cell line, not detected at concentrations up to” value in the series on CEM-SS cells is reported as > 10,000 nM. For the same molecule, in the series on HIV-1RF, the EC50 was found to be 6.6 nM. The “binding affinity to gp41 (ELISA)” value in the series with HIV-1 gp41 ectodomain is given as “approximately the same affinity”. Also, the “binding affinity to gp120 (ELISA)” value with HIV-1 gp120 is reported as “approximately the same affinity”.

B1: scytovirin: antiviral scytovirin polypeptide, SEQ ID NO: 4 (protein, listed as Scytonema varium)
chain: GSGPTYCWNEANNPGGPNRCSNNKQCDGARTCSSSGFCQGTSRKPDPGPKGPTYCWDEAKNPGGPNRCSNSKQCDGARTCSSSGFCQGTAGHAAA
With B1, in the series with CEM-SS cells, the “toxicity to the CEM-SS cell line, not detected at concentrations up to” value is given as > 10,000 nM. For the same molecule, in the series on HIV-1RF, the EC50 worked out at 7.5 nM. Further, in the series with HIV-1 gp41 ectodomain, the “binding affinity to gp41 (ELISA)” value was “approximately the same affinity”. Besides, the “binding affinity to gp120 (ELISA)” value with HIV-1 gp120 is listed as “approximately the same affinity”.

In general, EC50 refers to the midpoint of the concentration-response curve.

These data come from patent US8481255B2, “Scytovirin domain 1 related polypeptides” (The United States of America, as represented by the …, priority 2005, dated 2013).
